The source of these data is patent publication US20210285024A1 (CENTRE NATIONAL DE LA RECHERCHE SCIENTIFIQUE CNRS, published 2021).

The target in the assay is T1, recombinant human Vasohibin-2 (VASH2) (Homo sapiens, UniProt Q86V25 1-355, limits assumed).
T1 construct: Produced in E. coli (pET-28a(+)/pGEX) and purified by IMAC and ion exchange
Put plainly: recombinant complex purified and used as detyrosinase; no direct binding assay described.

T1 sequence (Q86V25 whole entry): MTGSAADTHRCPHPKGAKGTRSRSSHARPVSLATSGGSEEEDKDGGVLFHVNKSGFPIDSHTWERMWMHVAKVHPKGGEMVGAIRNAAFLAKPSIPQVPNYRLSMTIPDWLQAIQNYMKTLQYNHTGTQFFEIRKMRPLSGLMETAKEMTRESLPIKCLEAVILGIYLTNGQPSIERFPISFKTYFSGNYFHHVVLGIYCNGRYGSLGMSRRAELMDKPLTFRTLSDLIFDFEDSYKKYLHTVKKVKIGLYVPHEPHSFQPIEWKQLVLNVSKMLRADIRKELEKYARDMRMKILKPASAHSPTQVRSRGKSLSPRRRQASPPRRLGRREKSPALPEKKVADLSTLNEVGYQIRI

B1: Small vasohibin-binding protein (SVBP) (other)
chain: MDPPARKEKTKVKESVSRVEKAKQKSAQQELKQRQRAEIYALNRVMTELEQQQFDEFCKQMQPPGE
notes: Coexpressed with VASH1 or VASH2
In the case of B1, the binding result is recorded as “binds”.
